Source: US20250163119A1, “COMPOUNDS FOR THE TREATMENT OF DIABETES OR OBESITY” (Eli Lilly and Company, priority 2023, published 2025)
*1 amine or outer side, *2 acyl side, *3 side chain or, on linkers, in order; H or OH if unused. Where no end group is shown, it is not given here. Side-chain parts run from the residue outwards. [ ]: non-standard residue; d: D form. The star is where a group is joined. C20 diacid = O=C(O)CCCCCCCCCCCCCCCCCCC(=O)*; C18 diacid = O=C(O)CCCCCCCCCCCCCCCCC(=O)*; γGlu = O=C(O)[C@H](CCC(=O)[*:2])N[*:1]; εLys = N[C@@H](CCCCN[*:1])C(=O)[*:2]; αMeL = CC(C)C[C@](C)(N)C(=O)O; AEEA = NCCOCCOCC(=O)O; Aib = CC(C)(N)C(=O)O; Ahx = NCCCCCC(=O)O; βAla = NCCC(=O)O

T1: human corticotropin-releasing hormone receptor 1 (CRHR1) (human, UniProt P34998 24-415)
T1 sequence (looked up): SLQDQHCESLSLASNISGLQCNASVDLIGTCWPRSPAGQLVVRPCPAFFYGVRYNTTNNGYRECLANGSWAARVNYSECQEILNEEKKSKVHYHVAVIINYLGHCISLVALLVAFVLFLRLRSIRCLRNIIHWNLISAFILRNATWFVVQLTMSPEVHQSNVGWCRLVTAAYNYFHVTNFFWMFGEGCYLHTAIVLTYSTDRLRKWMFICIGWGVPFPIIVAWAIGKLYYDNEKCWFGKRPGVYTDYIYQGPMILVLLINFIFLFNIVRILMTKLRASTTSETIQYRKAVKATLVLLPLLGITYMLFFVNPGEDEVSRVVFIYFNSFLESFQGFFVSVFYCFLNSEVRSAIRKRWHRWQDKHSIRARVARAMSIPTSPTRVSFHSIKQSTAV


Molecular target: T1, human corticotropin-releasing hormone …
Test: cell-based or functional assay

Binder	hCRHR1 cAMP EC50 [µM]
Ac-GSPSIVTS[αMeL]DVPT[Aib][αMeL]LQKILEQERAEKARQQAK([γGlu-AEEA-Ahx-C20 diacid])EAAEILAQV-NH2 [polypeptide comprising SEQ ID NO:5]	> 10
Ac-IVTS[αMeL]D[dV]PI[Aib][αMeL]LQIKLEQERAEKARQQAKENTEILAQV-NH2 (not fully specified (residue 29)) [polypeptide comprising SEQ ID NO:51]	4.3
[γGlu]GSPSIVTS[αMeL]DVPT[Aib][αMeL]LEKILEQERAEKARQQATEAAEILAQV-NH2 (not fully specified (residue 1, N-terminus)) [polypeptide comprising SEQ ID NO:52]	1.5
Ac-GSPSIVTS[αMeL]DVPT[Aib][αMeL]LQKILEQERAEKARQQAK([γGlu-GKEKEKE-C20 diacid])EAAEILAQV-NH2 [polypeptide comprising SEQ ID NO:6]	> 10
Ac-GSPSIVTS[αMeL]DVPT[Aib][αMeL]LQKILEQERAEKARQQAK([Gly-βAla-βAla-βAla-γGlu-C20 diacid])EAAEILAQV-NH2 [polypeptide comprising SEQ ID NO:7]	> 10
Ac-GSPSIVTS[αMeL]DVPT[Aib][αMeL]LQKILEQERAEKARQQAK([Gly-βAla-βAla-βAla-βAla-γGlu-C20 diacid])EAAEILAQV-NH2 [polypeptide comprising SEQ ID NO:8]	> 10
Ac-GSPSIVTS[αMeL]DVPT[Aib][αMeL]LQKILEQERAEKARQQAK([AEEA-KEKEKE-γGlu-C20 diacid])EAAEILAQV-NH2 [polypeptide comprising SEQ ID NO:9]	> 10
Ac-GSPSIVTS[αMeL]DVPT[Aib][αMeL]LQKILEQERAEKARQQAK([βAla-Ser-βAla-Ser-γGlu-C20 diacid])EAAEILAQV-NH2 [polypeptide comprising SEQ ID NO:10]	> 10
Ac-GSPSIVTS[αMeL]DVPT[Aib][αMeL]LQKILEQERAEKARQQAK([γGlu-Pro-Lys-Glu-Ahx-C20 diacid])EAAEILAQV-NH2 [polypeptide comprising SEQ ID NO:11]	> 10
Ac-GSPSIVTS[αMeL]DVPT[Aib][αMeL]LQKLLEQERAEKARQQAK([γGlu-AEEA-Lys-C18 diacid])EAAEILAQV-NH2 (not fully specified) [polypeptide comprising SEQ ID NO:12]	> 10
Ac-GSPSIVTS[αMeL]DVPT[Aib][αMeL]LQKILEQERAEKARQQAK([γGlu-Pro-Lys-Glu-εLys-C20 diacid])EAAEILAQV-NH2 [polypeptide comprising SEQ ID NO:13]	> 10
Ac-GSPSIVTS[αMeL]DVPT[Aib][αMeL]LQKILEQERAEKARQQAK([γGlu-Pro-Pro-Pro-εLys-C20 diacid])EAAEILAQV-NH2 [polypeptide comprising SEQ ID NO:14]	> 10
Ac-GSPSIVTS[αMeL]DVPT[Aib][αMeL]LQKILEQERAEKARQQAK([γGlu-Pro-Pro-Pro-Pro-Pro-Pro-C20 diacid])EAAEILAQV-NH2 [polypeptide comprising SEQ ID NO:15]	> 10
Ac-GSPSIVTS[αMeL]DVPT[Aib][αMeL]LQKILEQERAEKARQQAK([γGlu-Pro-Glu-Pro-Glu-Pro-Glu-C20 diacid])EAAEILAQV-NH2 [polypeptide comprising SEQ ID NO:16]	> 10
Ac-GSPSIVTS[αMeL]DVPT[Aib][αMeL]LQKILEQERAEKARQQAK([γGlu-AEEA-AEEA-εLys-C20 diacid])EAAEILAQV-NH2 [polypeptide comprising SEQ ID NO:17]	> 10
